Assay results reported in US5750349.

Columns and labels:
[1] = biological target: β-amyloid (1-38); experiment: sandwich EIA, solid phase BAN-50a, label BA-27a-HRP
[2] = biological target: β-amyloid (1-39); experiment: as above
[3] = biological target: β-amyloid (1-42); experiment: as above
[4] = biological target: β-amyloid (1-40); experiment: sandwich EIA, solid phase BAN-052a, label BA-27a-HRP
[5] = biological target: β-amyloid (1-40); experiment: sandwich EIA, solid phase BA-27a, label BAN-052a-HRP
[6] = biological target: β-amyloid (1-40); experiment: competitive EIA with β-Gal-labeled βA(1-40); unlabeled peptide varied
[7] = biological target: β-amyloid (1-40); experiment: sandwich EIA, solid phase BAN-50a, label BA-27a-HRP (1500-fold dilution)
[8] = biological target: β-amyloid (1-40); experiment: sandwich EIA, solid phase BAN-50a, label BA-27a-HRP (1000-fold dilution)
[9] = biological target: β-amyloid (1-38); experiment: sandwich EIA, solid phase BAN-50a, label BA-27a-HRP; against β-amyloid (1-40)
[10] = biological target: β-amyloid (1-39); experiment: as above
[11] = biological target: β-amyloid (1-42); experiment: as above

detection sensitivity [1]: 85 pg/well | detection sensitivity [2]: 17 pg/well | detection sensitivity [3]: 18 pg/well | detection sensitivity [4]: 0.6 pg/well | detection sensitivity [5]: 10 pg/well | IC50 [6]: 200 nM | detection sensitivity [7]: 0.2 pg/well | detection sensitivity [8]: 0.2 pg/well | cross reactivity [9]: < 2% | cross reactivity [10]: < 2% | cross reactivity [11]: < 2%
Substance: BA-27a (antibody)
